Read-outs that look alike come from different tables or passages of the source.
T1: HvNAC013(176–346) (Hordeum vulgare (barley), UniProt F2EJH0 176-346)
T1 construct: HvNAC013, barley (Hordeum vulgare) NAC transcription factor, ID AK376297.1, residues 176-346; also called barley ortholog of ANAC046; source: plasmid from previous work
T1 sequence (looked up): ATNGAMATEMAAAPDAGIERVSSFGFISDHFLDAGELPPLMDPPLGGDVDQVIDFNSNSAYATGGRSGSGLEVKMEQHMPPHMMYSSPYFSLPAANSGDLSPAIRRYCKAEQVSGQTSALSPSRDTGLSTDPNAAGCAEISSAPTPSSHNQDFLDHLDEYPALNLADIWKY

B1: ANAC087(315–335) (peptide, UniProt Q9FK44 315-335, looked up)
chain: MVNGSKSYEDLCDLRGDLWDF
notes: NAC transcription factor ANAC087, Arabidopsis thaliana, AT5G18270, residues 315-335
B2: AtDREB2A(244–272;L264I) (peptide, UniProt O82132 244-272, looked up)
chain: WPNDVDQSHLDSSDMFDVDEILRDLNGDD
notes: DREB2A, Arabidopsis thaliana, AT5G05410, residues 244-272 with Leu264 to Ile; source: mutation by QuikChange
B3: AtDREB2A(244–272) (peptide, UniProt O82132 244-272, looked up)
chain: WPNDVDQSHLDSSDMFDVDELLRDLNGDD
B4: AtRCD1-RST(499–572) (domain or fragment, Arabidopsis thaliana, UniProt Q8RY59 499-572, looked up)
chain: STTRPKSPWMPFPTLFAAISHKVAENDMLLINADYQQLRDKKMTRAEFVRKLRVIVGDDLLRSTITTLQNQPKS
notes: RST domain of Radical-Induced Cell Death1 (RCD1), Arabidopsis thaliana, residues 499-572; also called AtRST(499–572); Arabidopsis RST domain
B5: ANAC013(254–274;L266I) (peptide, UniProt F4IED2 254-274, looked up)
chain: NLEEDMYLEINDIMEPEPEPT
notes: ANAC013, Arabidopsis thaliana, AT1G32870, residues 254-274 with Leu266 to Ile; Probably made from the ANAC013(254–274) plasmid of previous work and purified in the same way; also called AtANAC013(254–274;L266I)

How the values were obtained:
[1] = target: RCD1 RST (Arabidopsis thaliana) (UniProt Q8RY59); conditions: cited from earlier work
[2] = target: RCD1 499-572 (Arabidopsis thaliana) (UniProt Q8RY59); test: ITC; conditions: cited from earlier work
[3] = target: GmDREB2A(273–290) (Glycine max (soybean)); test: ITC; RST domain in the syringe (100–300 µM) titrated into the TF fragment in the cell (10–30 µM); 25 °C; 50 mM Hepes, pH 7.4, 100 mM NaCl; one set of sites model
[4] = target: ANAC013(254–274) (Arabidopsis thaliana) (UniProt F4IED2); test: as above
ANAC013(254–274) (Arabidopsis thaliana), sequence (F4IED2 254-274): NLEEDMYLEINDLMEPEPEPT

AtDREB2A(244–272) = target: B3; test: as above
AtRCD1-RST(499–572) [5] = target: B4; test: ITC; ANAC087(315–335) in the syringe (100–300 µM) titrated into the RST domain in the cell (10–30 µM); 25 °C; 50 mM Hepes, pH 7.4, 100 mM NaCl; one set of sites model; conditions: both partners purified
AtRCD1-RST(499–572) [6] = target: B4; test: ITC; RST domain in the syringe (100–300 µM) titrated into the TF fragment in the cell (10–30 µM); 25 °C; 50 mM Hepes, pH 7.4, 100 mM NaCl; one set of sites model; conditions: both partners purified
[7] = target: HvDRF1.1(255–273) (Hordeum vulgare (barley)); test: as above
HvNAC013(176–346) = target: T1, HvNAC013(176–346); test: as above; conditions: both partners purified

ANAC046 (from UniProt Q9SQQ6)
Kd [1]: 609 nM

ANAC013 254-274 (from UniProt F4IED2)
Kd [2]: 9 nM

GmRCD1-RST(483–583) (domain or fragment)
Kd [3]: 2590 nM | dH [3]: -5.62 kcal/mol | stoichiometry N [3]: 0.98 | Kd [4]: 526 nM | dH [4]: -8.77 kcal/mol | stoichiometry N [4]: 0.94 | Kd (AtDREB2A(244–272)): 320 nM | dH (AtDREB2A(244–272)): -9.25 kcal/mol | stoichiometry N (AtDREB2A(244–272)): 0.95

B1
Kd (AtRCD1-RST(499–572) [5]): 1750 nM | dH (AtRCD1-RST(499–572) [5]): -3.8 kcal/mol | stoichiometry N (AtRCD1-RST(499–572) [5]): 0.93

B2
Kd (AtRCD1-RST(499–572) [6]): 39 nM

B3
Kd (AtRCD1-RST(499–572) [6]): 16 nM

B4
Kd [7]: 450 nM | dH [7]: -11.6 kcal/mol | Kd [3]: 397 nM | dH [3]: -8.34 kcal/mol | Kd (HvNAC013(176–346)): 343 nM | dH (HvNAC013(176–346)): -1.08 kcal/mol | stoichiometry N (HvNAC013(176–346)): 1.03 | dH (AtDREB2A(244–272); both partners purified): -15.1 kcal/mol | stoichiometry N (AtDREB2A(244–272); both partners purified): 0.9

B5
Kd (AtRCD1-RST(499–572) [6]): 223 nM
